Laboratory results reported in the supplement of paper PMC9112550, “Optimization of the antimicrobial peptide Bac7 by deep mutational scanning” (BMC Biology, 2022).

tested on: Escherichia coli TOP10; test: shrunken log2 fold change of peptide-encoding DNA abundance (4.5 h post-induction vs induction); higher = less antimicrobial activity (less host growth inhibition); conditions: time post-induction: 4.5 h; library: site-saturation at positions 5, 18, 19, 20
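Further: peptides expressed intracellularly from a pBAD plasmid library in pooled LB shake-flask culture, induced with 0.3% L-arabinose, DNA abundance read by NGS, three biological replicates, DESeq2 with apeglm shrinkage.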

| Sequence | shrunken log2 fold change |
| --- | --- |
| RRIRGRPPRLPRPRPRPMWVPRP | 0.168 |
| RRIRGRPPRLPRPRPRPMWWPRP | 0.184 |
| RRIRGRPPRLPRPRPRPMYEPRP | 0.282 |
| RRIRGRPPRLPRPRPRPNAEPRP | 2.89 |
| RRIRGRPPRLPRPRPRPNAKPRP | 1.22 |
| RRIRGRPPRLPRPRPRPNALPRP | 0.474 |
| RRIRGRPPRLPRPRPRPNATPRP | 3.1 |
| RRIRGRPPRLPRPRPRPNDSPRP | -0.0552 |
| RRIRGRPPRLPRPRPRPNEDPRP | 0.468 |
| RRIRGRPPRLPRPRPRPNEPPRP | 0.154 |
| RRIRGRPPRLPRPRPRPNEWPRP | 1.8 |
| RRIRGRPPRLPRPRPRPNGGPRP | 0.0238 |
| RRIRGRPPRLPRPRPRPNHCPRP | -0.112 |
| RRIRGRPPRLPRPRPRPNHYPRP | -0.416 |
| RRIRGRPPRLPRPRPRPNICPRP | 0.168 |
| RRIRGRPPRLPRPRPRPNLIPRP | -0.0614 |
| RRIRGRPPRLPRPRPRPNNQPRP | -0.011 |
| RRIRGRPPRLPRPRPRPNPPPRP | 0.336 |
| RRIRGRPPRLPRPRPRPNPRPRP | 0.684 |
| RRIRGRPPRLPRPRPRPNQGPRP | 0.0411 |
| RRIRGRPPRLPRPRPRPNQTPRP | -0.0961 |
| RRIRGRPPRLPRPRPRPNRCPRP | 0.422 |
| RRIRGRPPRLPRPRPRPNSFPRP | -0.0356 |
| RRIRGRPPRLPRPRPRPNSLPRP | 0.271 |
| RRIRGRPPRLPRPRPRPNVIPRP | 0.211 |

| Sequence | shrunken log2 fold change |
| --- | --- |
| RRIRGRPPRLPRPRPRPNWQPRP | 0.0611 |
| RRIRGRPPRLPRPRPRPPDMPRP | 0.879 |
| RRIRGRPPRLPRPRPRPPEVPRP | 1.02 |
| RRIRGRPPRLPRPRPRPPEYPRP | 0.448 |
| RRIRGRPPRLPRPRPRPPGGPRP | 1.18 |
| RRIRGRPPRLPRPRPRPPGKPRP | 0.807 |
| RRIRGRPPRLPRPRPRPPGSPRP | 1.09 |
| RRIRGRPPRLPRPRPRPPHGPRP | 0.903 |
| RRIRGRPPRLPRPRPRPPHPPRP | 0.643 |
| RRIRGRPPRLPRPRPRPPIQPRP | 0.341 |
| RRIRGRPPRLPRPRPRPPIVPRP | 0.0957 |
| RRIRGRPPRLPRPRPRPPKNPRP | 1.11 |
| RRIRGRPPRLPRPRPRPPLGPRP | 0.844 |
| RRIRGRPPRLPRPRPRPPMDPRP | 0.597 |
| RRIRGRPPRLPRPRPRPPNYPRP | 0.299 |
| RRIRGRPPRLPRPRPRPPPDPRP | 1.37 |
| RRIRGRPPRLPRPRPRPPPGPRP | 1.36 |
| RRIRGRPPRLPRPRPRPPREPRP | 1.3 |
| RRIRGRPPRLPRPRPRPPRYPRP | 0.701 |
| RRIRGRPPRLPRPRPRPPSSPRP | 0.703 |
| RRIRGRPPRLPRPRPRPPSTPRP | 0.643 |
| RRIRGRPPRLPRPRPRPPSYPRP | 0.326 |
| RRIRGRPPRLPRPRPRPPTQPRP | 0.727 |
| RRIRGRPPRLPRPRPRPPTSPRP | 0.879 |
| RRIRGRPPRLPRPRPRPPVDPRP | 0.953 |

| Sequence | shrunken log2 fold change |
| --- | --- |
| RRIRGRPPRLPRPRPRPPWKPRP | 0.435 |
| RRIRGRPPRLPRPRPRPPWRPRP | 1.07 |
| RRIRGRPPRLPRPRPRPPYYPRP | -0.0196 |
| RRIRGRPPRLPRPRPRPQAAPRP | 1.22 |
| RRIRGRPPRLPRPRPRPQAPPRP | 0.662 |
| RRIRGRPPRLPRPRPRPQDGPRP | 0.0108 |
| RRIRGRPPRLPRPRPRPQDKPRP | 0.0315 |
| RRIRGRPPRLPRPRPRPQEDPRP | 0.291 |
| RRIRGRPPRLPRPRPRPQEPPRP | 0.134 |
| RRIRGRPPRLPRPRPRPQFDPRP | 0.61 |
| RRIRGRPPRLPRPRPRPQFFPRP | -0.0486 |
| RRIRGRPPRLPRPRPRPQFRPRP | 0.0341 |
| RRIRGRPPRLPRPRPRPQGKPRP | 0.0794 |
| RRIRGRPPRLPRPRPRPQGVPRP | -0.0465 |
| RRIRGRPPRLPRPRPRPQKQPRP | 0.154 |
| RRIRGRPPRLPRPRPRPQMKPRP | 0.29 |
| RRIRGRPPRLPRPRPRPQNCPRP | 0.0394 |
| RRIRGRPPRLPRPRPRPQNQPRP | 0.0596 |
| RRIRGRPPRLPRPRPRPQPSPRP | 0.65 |
| RRIRGRPPRLPRPRPRPQPVPRP | 0.285 |
| RRIRGRPPRLPRPRPRPQQAPRP | -0.0245 |
| RRIRGRPPRLPRPRPRPQQFPRP | 0.239 |
| RRIRGRPPRLPRPRPRPQQYPRP | -0.107 |
| RRIRGRPPRLPRPRPRPQRCPRP | 0.0883 |
| RRIRGRPPRLPRPRPRPQRDPRP | 0.419 |
